# Results published in patent US20250136688A1 (Janssen / Centocor, published 2025).
# T1: ectonucleotide pyrophosphatase/phosphodiesterase family member 3 (ENPP3) (human, UniProt O14638 1-875)
# T1 construct: whole, on cells; also called CD203c
# T1 sequence (looked up): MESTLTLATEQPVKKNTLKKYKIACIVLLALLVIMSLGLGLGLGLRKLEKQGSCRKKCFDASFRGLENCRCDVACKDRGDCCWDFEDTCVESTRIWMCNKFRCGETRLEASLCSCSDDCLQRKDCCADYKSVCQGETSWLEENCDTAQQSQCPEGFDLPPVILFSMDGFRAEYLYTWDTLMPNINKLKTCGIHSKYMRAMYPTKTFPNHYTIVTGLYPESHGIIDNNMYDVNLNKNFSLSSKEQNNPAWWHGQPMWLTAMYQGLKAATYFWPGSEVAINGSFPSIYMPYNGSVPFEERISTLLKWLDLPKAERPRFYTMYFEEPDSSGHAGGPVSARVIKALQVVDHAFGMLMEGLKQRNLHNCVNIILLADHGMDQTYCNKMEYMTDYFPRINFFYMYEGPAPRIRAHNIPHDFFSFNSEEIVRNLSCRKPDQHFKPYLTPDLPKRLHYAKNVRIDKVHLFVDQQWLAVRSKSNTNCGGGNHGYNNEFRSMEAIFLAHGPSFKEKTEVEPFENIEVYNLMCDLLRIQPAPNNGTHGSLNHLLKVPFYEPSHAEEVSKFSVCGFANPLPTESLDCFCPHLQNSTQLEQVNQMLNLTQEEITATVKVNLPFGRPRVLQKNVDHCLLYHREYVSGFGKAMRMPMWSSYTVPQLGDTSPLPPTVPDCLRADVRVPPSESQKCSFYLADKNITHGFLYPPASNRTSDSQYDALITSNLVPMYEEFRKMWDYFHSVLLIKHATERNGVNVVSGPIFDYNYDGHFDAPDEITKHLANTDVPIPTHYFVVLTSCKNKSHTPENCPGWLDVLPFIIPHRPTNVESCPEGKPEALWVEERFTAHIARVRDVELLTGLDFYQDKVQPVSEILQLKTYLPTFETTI
# T2: cyno ENPP3 (cynomolgus monkey, UniProt A0A2K5TKP4 1-874)
# T2 sequence: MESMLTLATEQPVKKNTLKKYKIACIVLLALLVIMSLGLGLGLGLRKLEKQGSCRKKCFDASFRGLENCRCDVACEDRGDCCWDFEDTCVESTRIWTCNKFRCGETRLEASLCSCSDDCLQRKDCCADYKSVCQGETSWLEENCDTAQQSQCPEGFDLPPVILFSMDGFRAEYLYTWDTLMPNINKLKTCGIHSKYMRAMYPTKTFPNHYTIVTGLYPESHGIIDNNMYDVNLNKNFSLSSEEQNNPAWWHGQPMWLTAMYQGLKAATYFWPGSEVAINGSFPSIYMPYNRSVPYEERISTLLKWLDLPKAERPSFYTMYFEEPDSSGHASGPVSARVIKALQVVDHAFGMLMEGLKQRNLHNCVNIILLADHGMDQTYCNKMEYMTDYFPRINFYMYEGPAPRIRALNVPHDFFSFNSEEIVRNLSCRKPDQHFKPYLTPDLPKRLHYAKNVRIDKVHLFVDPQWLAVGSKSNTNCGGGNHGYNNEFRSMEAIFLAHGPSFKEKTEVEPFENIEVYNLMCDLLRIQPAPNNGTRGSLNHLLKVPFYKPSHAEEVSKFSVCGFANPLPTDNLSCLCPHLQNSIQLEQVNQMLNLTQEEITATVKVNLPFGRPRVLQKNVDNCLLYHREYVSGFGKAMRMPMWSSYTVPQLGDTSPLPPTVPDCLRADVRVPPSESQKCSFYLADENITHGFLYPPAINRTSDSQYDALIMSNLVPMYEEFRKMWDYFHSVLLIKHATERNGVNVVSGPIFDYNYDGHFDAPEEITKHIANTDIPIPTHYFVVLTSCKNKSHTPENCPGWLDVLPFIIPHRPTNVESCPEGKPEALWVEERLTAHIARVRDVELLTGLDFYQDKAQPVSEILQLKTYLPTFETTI
# Legend:
# [1] = molecular target: T1, ectonucleotide …; assay: flow cytometry on CHO ENPP3 OE cells
# Human CD3 epsilon = molecular target: T3, Human CD3 epsilon (human, UniProt P07766 23-207); assay: flow cytometry on T cells of healthy human donor 110040278
# T3 construct: Stood on human T cells (pan-T cells, isolated donor T cells) as part of the TCR/CD3 complex; the other chains of the complex are not written here; also called CD3ε; CD3R
# T3 sequence (P07766 23-207 limits assumed): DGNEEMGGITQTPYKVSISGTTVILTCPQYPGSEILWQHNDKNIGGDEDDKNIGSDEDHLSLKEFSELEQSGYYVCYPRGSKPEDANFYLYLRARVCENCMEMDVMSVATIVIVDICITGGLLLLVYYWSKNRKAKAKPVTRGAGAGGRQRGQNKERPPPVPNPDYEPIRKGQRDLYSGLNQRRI
# [2] = molecular target: ectonucleotide pyrophosphatase/phosphodiesterase family member 2 (ENPP2) (human, UniProt Q13822 36-863); assay: flow cytometry on CHOK1 cells overexpressing ENPP2
# [3] = molecular target: T1, ectonucleotide …; assay: flow cytometry on VMRCRCW cells
# cyno ENPP3 = molecular target: T2, cyno ENPP3; assay: cell-based or functional assay
# [4] = molecular target: T1, ectonucleotide …; assay: cell-based or functional assay
binder,measurement,setting,value
"NPP3B815 (NPP3B56×CD3B2030-N106A-spFv) (bispecific antibody, human IgG1, kappa, L234A L235A, Heavy Chain 1 = anti-CD3 spFv-Fc (knob); Heavy Chain 2 and Light Chain = anti-ENPP3 Fab arm NPP3B56 (hole); IgG1 with L234A, L235A, D265S; also called ENPP3×CD3) EIVLTQSPATLSASPGERVTLSCSASSSVSYMNWYQQKPGCAPRRWIYDSSKLASGVPARFSGSGSGRDYTLTISSLEPEDFAVYYCQQWSRNPPTFGGGTKVEIKGGGSGGSGGCPPCGGSGGQVQLVQSGAEVKKPGSSVKVSCKASGYTFTRSTMHWVKQAPGQGLEWIGYINPSSAYTNYNQKFQGRVTLTADKSTSTAYMELSSLRSEDTAVYYCASPQVHYDYAGFPYWGCGTLVTVSSEPKSSDKTHTCPPCPAPEAAGGPSVFLFPPKPKDTLMISRTPEVTCVVVSVSHEDPEVKFNWYVDGVEVHNAKTKPREEQYNSTYRVVSVLTVLHQDWLNGKEYKCKVSNKALPAPIEKTISKAKGQPREPQVYTLPPSREEMTKNQVSLWCLVKGFYPSDIAVEWESNGQPENNYKTTPPVLDSDGSFFLYSKLTVDKSRWQQGNVFSCSVMHEALHNHYTQKSLSLSPGK heavy: EVQLVESGGGRVKPGGSLRLSCAASGFTFSDYSMNWVRQAPGKGLEWVSSISSISSYVKYADSVKGRFTMSRDNAKNSLFLQMNSLRDEDMAVYYCARGHYFDYWGQGTLVTVSSASTKGPSVFPLAPSSKSTSGGTAALGCLVKDYFPEPVTVSWNSGALTSGVHTFPAVLQSSGLYSLSSVVTVPSSSLGTQTYICNVNHKPSNTKVDKKVEPKSCDKTHTCPPCPAPEAAGGPSVFLFPPKPKDTLMISRTPEVTCVVVSVSHEDPEVKFNWYVDGVEVHNAKTKPREEQYNSTYRVVSVLTVLHQDWLNGKEYKCKVSNKALPAPIEKTISKAKGQPREPQVYTLPPSREEMTKNQVSLSCAVKGFYPSDIAVEWESNGQPENNYKTTPPVLDSDGSFFLVSKLTVDKSRWQQGNVFSCSVMHEALHNRFTQKSLSLSPGK light: not shown",EC50,[1],0.51 nM
same,EC50,Human CD3 epsilon,253 nM
same,binding result,[2],no binding
same,EC50,[3],0.5 nM
same,"Cytotox. EC50, human T cells, HepG2-KO cyno ENPP3-OE cells, E:T 3:1",cyno ENPP3,0.079 nM
same,"T-cell activation EC50, human T cells, HepG2-KO cyno ENPP3-OE cells, E:T 3:1",cyno ENPP3,0.023 nM
same,"killing EC50 @ 72 hrs, A704, T-cell donor 110040278, E:T 1:1",[4],0.075 nM
same,"killing EC50 @ 72 hrs, A704, T-cell donor 110040278, E:T 3:1",[4],0.0484 nM
same,"killing EC50 @ 72 hrs, A704, T-cell donor 110042496, E:T 1:1",[4],0.132 nM
same,"killing EC50 @ 72 hrs, A704, T-cell donor 110042496, E:T 3:1",[4],0.0696 nM
same,"killing EC50 @ 72 hrs, A704, T-cell donor 110042593, E:T 1:1",[4],0.114 nM
same,"killing EC50 @ 72 hrs, A704, T-cell donor 110042593, E:T 3:1",[4],0.0336 nM
same,"killing EC50 @ 72 hrs, A704, T-cell donor 110044049, E:T 3:1",[4],0.0524 nM
same,"killing EC50 @ 72 hrs, A704, T-cell donor 888668965, E:T 3:1",[4],0.0454 nM
same,"killing EC50 @ 72 hrs, VMRCRCW, T-cell donor 110040278, E:T 1:1",[4],0.243 nM
same,"killing EC50 @ 72 hrs, VMRCRCW, T-cell donor 110040278, E:T 1:3",[4],0.456 nM
same,"killing EC50 @ 72 hrs, VMRCRCW, T-cell donor 110040278, E:T 3:1",[4],0.0923 nM
same,"killing EC50 @ 72 hrs, VMRCRCW, T-cell donor 110042496, E:T 1:1",[4],0.465 nM
same,"killing EC50 @ 72 hrs, VMRCRCW, T-cell donor 110042496, E:T 3:1",[4],0.128 nM
same,"killing EC50 @ 72 hrs, VMRCRCW, T-cell donor 110042593, E:T 1:1",[4],0.225 nM
same,"killing EC50 @ 72 hrs, VMRCRCW, T-cell donor 110042593, E:T 3:1",[4],0.0795 nM
same,"killing EC50 @ 72 hrs, VMRCRCW, T-cell donor 110044049, E:T 1:1",[4],0.151 nM
same,"killing EC50 @ 72 hrs, VMRCRCW, T-cell donor 110044049, E:T 1:3",[4],0.226 nM
same,"killing EC50 @ 72 hrs, VMRCRCW, T-cell donor 110044049, E:T 3:1",[4],0.115 nM
same,"killing EC50 @ 72 hrs, VMRCRCW, T-cell donor 110048457, E:T 1:1",[4],0.177 nM
same,"killing EC50 @ 72 hrs, VMRCRCW, T-cell donor 110048457, E:T 1:3",[4],0.276 nM
same,"killing EC50 @ 72 hrs, VMRCRCW, T-cell donor 110048457, E:T 3:1",[4],0.372 nM
same,"killing EC50 @ 72 hrs, VMRCRCW, T-cell donor 888668965, E:T 1:1",[4],0.273 nM
same,"killing EC50 @ 72 hrs, VMRCRCW, T-cell donor 888668965, E:T 1:3",[4],0.469 nM
same,"killing EC50 @ 72 hrs, VMRCRCW, T-cell donor 888668965, E:T 3:1",[4],0.156 nM
same,"killing EC50 @ 120 hrs, A704, T-cell donor 110040278, E:T 1:1",[4],0.041 nM
same,"killing EC50 @ 120 hrs, A704, T-cell donor 110040278, E:T 1:3",[4],0.149 nM
same,"killing EC50 @ 120 hrs, A704, T-cell donor 110042496, E:T 1:1",[4],0.073 nM
same,"killing EC50 @ 120 hrs, A704, T-cell donor 110042496, E:T 1:3",[4],0.191 nM
same,"killing EC50 @ 120 hrs, A704, T-cell donor 110042593, E:T 1:1",[4],0.048 nM
same,"killing EC50 @ 120 hrs, A704, T-cell donor 110042593, E:T 1:3",[4],0.106 nM
same,"killing EC50 @ 120 hrs, A704, T-cell donor 110044049, E:T 1:1",[4],0.125 nM
same,"killing EC50 @ 120 hrs, A704, T-cell donor 888668965, E:T 1:3",[4],0.163 nM
same,"killing EC50 @ 120 hrs, VMRCRCW, T-cell donor 110040278, E:T 1:1",[4],0.264 nM
same,"killing EC50 @ 120 hrs, VMRCRCW, T-cell donor 110040278, E:T 1:3",[4],0.332 nM
same,"killing EC50 @ 120 hrs, VMRCRCW, T-cell donor 110042496, E:T 1:1",[4],0.454 nM
same,"killing EC50 @ 120 hrs, VMRCRCW, T-cell donor 110042496, E:T 1:3",[4],0.5 nM
same,"killing EC50 @ 120 hrs, VMRCRCW, T-cell donor 110042593, E:T 1:1",[4],0.218 nM
same,"killing EC50 @ 120 hrs, VMRCRCW, T-cell donor 110042593, E:T 1:3",[4],0.485 nM
same,"killing EC50 @ 120 hrs, VMRCRCW, T-cell donor 110044049, E:T 1:1",[4],0.216 nM
same,"killing EC50 @ 120 hrs, VMRCRCW, T-cell donor 110044049, E:T 1:3",[4],0.337 nM
same,"killing EC50 @ 120 hrs, VMRCRCW, T-cell donor 110048457, E:T 1:1",[4],0.21 nM
same,"killing EC50 @ 120 hrs, VMRCRCW, T-cell donor 110048457, E:T 1:3",[4],0.267 nM
same,"killing EC50 @ 120 hrs, VMRCRCW, T-cell donor 888668965, E:T 1:1",[4],0.345 nM
same,"killing EC50 @ 120 hrs, VMRCRCW, T-cell donor 888668965, E:T 1:3",[4],0.379 nM
